Measured values as given in IntAct's records for PubMed 22124327.

Target: otub1_human OTUB1 (UniProt Q96FW1)
Sequence (Q96FW1 whole entry): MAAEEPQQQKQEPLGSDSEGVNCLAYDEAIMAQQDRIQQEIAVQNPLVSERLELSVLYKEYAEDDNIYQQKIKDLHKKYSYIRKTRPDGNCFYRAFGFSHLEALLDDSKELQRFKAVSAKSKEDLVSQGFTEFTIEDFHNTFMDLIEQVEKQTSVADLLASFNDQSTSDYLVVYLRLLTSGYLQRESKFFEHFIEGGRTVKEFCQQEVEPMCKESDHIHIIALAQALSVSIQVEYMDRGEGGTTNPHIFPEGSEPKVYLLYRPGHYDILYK

Sequence of Ubiquitin-conjugating enzyme E2 D1 (Homo sapiens), P51668 D87A (P51668 whole entry D87A): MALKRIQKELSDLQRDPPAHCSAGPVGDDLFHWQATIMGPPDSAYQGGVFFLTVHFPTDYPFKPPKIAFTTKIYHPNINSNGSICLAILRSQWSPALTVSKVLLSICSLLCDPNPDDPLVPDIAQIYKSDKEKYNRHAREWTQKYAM

Ubiquitin-conjugating enzyme E2 D1 (Homo sapiens), P51668 D87A
effect of a mutation on the interaction: disrupting interaction
